Source: publication doi:10.1101/775726, “How the dual PDZ domain from Postsynaptic density protein 95 clusters ion channels and receptors” (bioRxiv, 2019)

Experiments:
Experiment in all cases: ITC; 5 mM RRESEI in the syringe, PDZ1-2, PDZ1 or PDZ2 in the cell at nominal 0.13 mM; 25°C; 20 mM Tris-HCl, 150 mM NaCl, pH8.5; MicroCal VP-ITC; PDZ1-2 fitted assuming a single class of sites
Details in all cases: both partners purified
[1] = molecular target: T1, PSD-95 PDZ2 domain (residues 154-249) (human, UniProt P78352 154-249)
T1 construct: Gly-Pro left at the N-terminus after HRV 3C cleavage of the tag; PSD-95, human, PDZ2, residues 154-249 of UniProt P78352 [197-292 of P78352-2]; Vector pOPINF; source: E. coli BL21(DE3), purified (Ni-NTA, HRV 3C tag cleavage, negative Ni-NTA, Superdex200 SEC); not shown: His6, N-terminal, cleaved

[2] = molecular target: T2, PSD-95 PDZ1 domain (residues 55-152) (human, UniProt P78352 55-152)
T2 construct: Gly-Pro left at the N-terminus after HRV 3C cleavage of the tag; PSD-95, human, PDZ1, residues 55-152 of UniProt P78352 [98-195 of P78352-2]; Vector pOPINF; source: E. coli BL21(DE3), purified (Ni-NTA, HRV 3C tag cleavage, negative Ni-NTA, Superdex200 SEC); not shown: His6, N-terminal, cleaved

[3] = molecular target: T3, PSD-95 PDZ1-2 dual domain (residues 55-249) (human, UniProt P78352 55-249)
T3 construct: PSD-95 (Disks large homologue 4, SAP-90), human, residues 55-249 of UniProt P78352 [98-292 of P78352-2]; PDZ1, 8-residue linker, PDZ2; cleaved construct 20.8 kDa; ends printed as NGT- and -SNA; Vector pOPINF; SASBDB entries: apo SASDGE5, SASDGF5, SASDGG5; with GSH SASDGH5, SASDGJ5, SASDGK5; also called apo:PDZ1-2; dual PDZ domain; source: E. coli BL21(DE3), purified (Ni-NTA, HRV 3C tag cleavage, …)
T3 sequence (P78352 other isoform, or with tags, fused parts or gaps): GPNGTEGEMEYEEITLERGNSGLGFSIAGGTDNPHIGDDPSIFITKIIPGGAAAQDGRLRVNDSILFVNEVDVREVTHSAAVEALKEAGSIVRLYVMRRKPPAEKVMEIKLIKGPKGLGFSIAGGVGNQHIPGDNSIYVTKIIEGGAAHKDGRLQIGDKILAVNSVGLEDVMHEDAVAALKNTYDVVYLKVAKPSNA

T2 sequence (P78352 other isoform, or with tags, fused parts or gaps): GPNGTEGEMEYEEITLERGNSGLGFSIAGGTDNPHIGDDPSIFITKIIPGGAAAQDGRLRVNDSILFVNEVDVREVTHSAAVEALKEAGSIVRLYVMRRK
T1 sequence (P78352 other isoform, or with tags, fused parts or gaps): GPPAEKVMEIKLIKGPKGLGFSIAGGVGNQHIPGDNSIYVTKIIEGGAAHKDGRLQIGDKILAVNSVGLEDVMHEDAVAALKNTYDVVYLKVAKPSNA

Kd [1]: 60 ± 2 µM | Kd [2]: 6 ± 6 µM | Kd [3]: 90 ± 9 µM
B1: RRESEI peptide (last 6 residues of Kir2.1) (peptide)
peptide: RRESEI
notes: last 6 residues of the inwardly rectifying potassium channel Kir2.1 (C-terminus, type I PDZ motif ESEI); also called RRESEI ligand; ligand peptide; source: synthetic peptide, 98% purity (Peptide Protein Research Ltd.)
